Molecular target: Mu8.1 conotoxin from Conus mucronatus (Conus mucronatus)
Assay: crystal structure

Mu8.1 conotoxin from Conus mucronatus (natural protein)
stoichiometry N: 2

From PMC10478764
